In patent US20260242448A1:

Key:
[1] = target: S protein of the SARS-CoV-2 BA.1 strain on pseudo-virus (SARS-CoV-2 BA.1 strain); test: cell-based or functional assay
[2] = target: S protein of the SARS-CoV-2 BA.2.75 strain on pseudo-virus (SARS-CoV-2 BA.2.75 strain); test: cell-based or functional assay
[3] = target: S protein of the SARS-CoV-2 BA.4/5 strains on pseudo-virus (SARS-CoV-2 BA.4/5 strain); test: cell-based or functional assay
[4] = target: S protein of the SARS-CoV-2 BF.7 strain on pseudo-virus (SARS-CoV-2 BF.7 strain); test: cell-based or functional assay
[5] = target: S protein of the SARS-CoV-2 BQ.1 strain on pseudo-virus (SARS-CoV-2 BQ.1 strain); test: cell-based or functional assay
[6] = target: S protein of the SARS-CoV-2 BQ.1.1 strain on pseudo-virus (SARS-CoV-2 BQ.1.1 strain); test: cell-based or functional assay
[7] = target: S protein of the SARS-CoV-2 Delta strain on pseudo-virus (SARS-CoV-2 Delta strain); test: cell-based or functional assay
[8] = target: S protein of the SARS-CoV-2 XBB strain on pseudo-virus (SARS-CoV-2 XBB strain); test: cell-based or functional assay
[9] = target: S protein of the SARS-CoV-2 XBB.1.5 strain on pseudo-virus (SARS-CoV-2 XBB.1.5 strain); test: cell-based or functional assay
[10] = target: SARS-CoV-2 (BA.5) Spike RBD (SARS-CoV-2 BA.5 strain); test: SPR, Biacore 8K; antibody captured on Protein A chip, RBD as analyte
[11] = target: SARS-CoV-2 (BF.7) Spike RBD (SARS-CoV-2 BF.7 strain); test: as above
[12] = target: SARS-CoV-2 (BF.7) Spike RBD (SARS-CoV-2 BF.7 strain); test: ELISA on plate-coated RBD (1 µg/mL), HRP anti-human Fc detection, OD450

Sequence of LY-CoV1404 (antibody) (VH): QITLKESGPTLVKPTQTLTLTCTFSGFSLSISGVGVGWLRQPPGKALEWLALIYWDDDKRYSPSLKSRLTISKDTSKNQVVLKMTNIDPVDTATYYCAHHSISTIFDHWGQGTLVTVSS
Sequence of LY-CoV1404 (antibody) (VL): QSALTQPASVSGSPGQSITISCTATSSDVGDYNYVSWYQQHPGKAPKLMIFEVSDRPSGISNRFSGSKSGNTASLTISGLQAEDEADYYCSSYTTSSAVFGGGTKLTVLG

## LY-CoV1404 (antibody)
[1]
  Neutralization activity (IC50) against pseudo-virus: 1.44 ng/mL
[2]
  Neutralization activity (IC50) against pseudo-virus: 25.1 ng/mL
[3]
  Neutralization activity (IC50) against pseudo-virus: 1.22 ng/mL
[4]
  Neutralization activity (IC50) against pseudo-virus: 2.14 ng/mL
[5]
  Neutralization activity (IC50) against pseudo-virus: > 2000 ng/mL
[6]
  Neutralization activity (IC50) against pseudo-virus: > 2000 ng/mL
[7]
  Neutralization activity (IC50) against pseudo-virus: 3.05 ng/mL
[8]
  Neutralization activity (IC50) against pseudo-virus: > 2000 ng/mL
[9]
  Neutralization activity (IC50) against pseudo-virus: > 2000 ng/mL
[10]
  Kd: 0.184 nM
  koff: 0.000264 s⁻¹
  kon: 1.44e+06 M⁻¹ s⁻¹
[11]
  Kd: 0.162 nM
  koff: 0.000148 s⁻¹
  kon: 910000 M⁻¹ s⁻¹
[12]
  EC50: 0.111 nM
